What all share (test): purified protein
Conditions in all cases: air oxygen

Substrate in data set [1]: COc1ccccc1O
Substrate in data set [2]: CCn1c(=NN=c2sc3cc(S(=O)(=O)O)ccc3n2CC)sc2cc(S(=O)(=O)O)ccc21
The class given is biochemical, Coprinus comatus.

Substrate in data set [3]: COc1cc(C=NN=Cc2cc(OC)c(O)c(OC)c2)cc(OC)c1O
Type of data set: biochemical, Coprinus comatus.

Substrate in data set [4]: Cc1cccc(C)c1O
Type of data set: biochemical, Coprinus comatus.

Setting [5] is: pH 5.0, optimal temperature 50 °C, 50.0 °C.
The mark [6] stands for this setting: pH 3.0, optimal temperature 65 °C.
The mark [7] stands for this setting: pH 5.0 (optimum elsewhere given as 5.5), optimal temperature 60 °C.
Setting [8] is: pH 5.5 (optimum elsewhere given as 5.0), optimal temperature 60 °C.
Setting [9] is: pH 6.0, optimal temperature 60 °C, 60.0 °C.
Setting [10] is: pH 3.0, optimal temperature 60 °C.
Setting [11] is: pH 6.0 (optimum elsewhere given as 5.5), optimal temperature 65 °C.
Setting [12] is: pH 5.5 (optimum elsewhere given as 6.0), optimal temperature 65 °C.

B1: Lac3 (Coprinus comatus) (protein)
chain: SVLIPHSTLTLTNQLIAPDGFQRSAIVVNGEHPGPLIQATKGDGFMVNVVNQLTDPTMQRAASVHWHGLSQRGTNWADGATGVNQCPISPNHSFEYTFTGGDSQAGTFWYHSHYFLQYCDGLRGPLVIYDPEDPWKNLYDVDDESTVLTLADWYHTPFPSIPGFPLPESTLINGKGRYPDGPNVDLSIVNVEKGKRYRFRLVSLACETSYLFGIDGHQLQVIETDGQNTVPVVVDKLRIFAGQRYSFVLDANQNIDNYWVRSLPANGMPKLVAGYEGGINSAILRYRGAPISDPQTNDNQNLILLEEAKLVPAQDPFPPGNPTAGGADFNVTLNFVLDVDLASGEPQFKLNDKVYRPPSVPILLKILSGARRPEELLPEGNLFSVPRDKVIEVTVPGGIAAGPHPMHLHGHTFSVVKSAGKNNQPNYLTPVRRDVTATSQEVDDYITIRFTTDNPGPWLLHCHLNKHHESGMVVVFVADVDSVAEENPVPDAWNDLCPIYDALSDAEKEVKIVSSLPMPV
notes: mature form (547-aa precursor, 28-aa putative signal peptide removed); pPICZalphaB-10AALac3; secreted from Pichia pastoris KM71H; glycosylated, about 75 kDa (55 kDa after endoH)
Usually Km stands for the concentration of substrate that gives half-maximal velocity. Usually kcat stands for the number of substrate molecules converted per active site and unit of time at saturation. By kcat/Km is commonly meant the turnover number divided by the Michaelis constant. Consider B1, for which the Km in the data set “purified protein [1]” (setting [5]) is 1114 µM; in “purified protein [2]” (setting [6]), 136 µM; in “purified protein [3]” (setting [7]), 87 µM; in the data set “purified protein [4]” (setting [8]), 1374 µM. Besides, the kcat came to 0.418 s⁻¹ in the data set “purified protein [1]” (setting [5]), 3.48 s⁻¹ in the data set “purified protein [2]” (setting [6]), 32 s⁻¹ in “purified protein [3]” (setting [7]) and 0.307 s⁻¹ in “purified protein [4]” (setting [8]). Besides, the kcat/Km in “purified protein [1]” (setting [5]) was 375 M⁻¹ s⁻¹; in the data set “purified protein [2]” (setting [6]), 25600 M⁻¹ s⁻¹; in the data set “purified protein [3]” (setting [7]), 367000 M⁻¹ s⁻¹; in “purified protein [4]” (setting [8]), 223 M⁻¹ s⁻¹.

B2: Lac4 (Coprinus comatus) (protein)
chain: LSVGPRATLTLTNDVVAPDGFERSAIVVNGGHPGPLIQANKGDAYTINVVNRLTDSTMQRVSSIHWHGLSQRGTNWADGGSGVNQCPISPNHSFEYQFSGRKDQAGTFWYHSHYSIQYCDGLRGPLVIYDPNDPFKNLYDVDDESTVITLTDWYHTPFPSVTGPPTSDSTLINGKGRYPGGPNVDLSVINVERGKRYRFRLVALTCENSHLFGIDGHQLLVIETGGESTVPTLVDKITLLAGQRYSFVLDANQAVDNYWIRGLPRSGVPSLKAGYEGGLNSAILRYQGAPITEPQTTDNENAALLDEAQLVPTRNPFAPGRPTSGGADFNVTVNFELDLTTGSPHFKLNGKIYQPPTVPILLQIISGARKAEELLPEGNIYFVPRNKVVEVTVPGGIPGAPHPMHLHGHHFSVVKSAGKHNQVNYLTPVRRDTTASPVEVDDNTTIRFTTDSPGPWIFHCHFNKHQSIGMAVVFVADIDEVAEKNPTPDAWNDLCPIYQSLSESETVVEIVPMVKH
notes: mature form (532-aa precursor, 16-aa putative signal peptide removed); pPICZalphaB-10AALac4; secreted from Pichia pastoris KM71H; glycosylated, about 70 kDa (52 kDa after endoH)
As for B2, the Km came out at 455 µM in “purified protein [1]” (setting [9]), 205 µM in the data set “purified protein [2]” (setting [10]), 204 µM in “purified protein [3]” (setting [11]) and 7131 µM in “purified protein [4]” (setting [12]). In addition, the kcat in the data set “purified protein [1]” (setting [9]) amounted to 0.196 s⁻¹; in the data set “purified protein [2]” (setting [10]), 1.47 s⁻¹; in the data set “purified protein [3]” (setting [11]), 44.7 s⁻¹; in the data set “purified protein [4]” (setting [12]), 1.47 s⁻¹. Besides, the specificity constant (kcat/Km) worked out at 503 M⁻¹ s⁻¹ in the data set “purified protein [1]” (setting [9]), 7170 M⁻¹ s⁻¹ in the data set “purified protein [2]” (setting [10]), 220000 M⁻¹ s⁻¹ in “purified protein [3]” (setting [11]) and 206 M⁻¹ s⁻¹ in “purified protein [4]” (setting [12]).

Values taken from publication PMC3977997, “Engineering the Expression and Characterization of Two Novel Laccase Isoenzymes from Coprinus comatus in Pichia pastoris by Fusing an Additional Ten Amino Acids Tag at N-Terminus” (PLoS ONE, 2014).
